Measurements: IntAct's records for PubMed 31515488

B1: Programmed cell death 6-interacting protein (Homo sapiens), Q8WUM4 (parent)
chain: MATFISVQLKKTSEVDLAKPLVKFIQQTYPSGGEEQAQYCRAAEELSKLRRAAVGRPLDKHEGALETLLRYYDQICSIEPKFPFSENQICLTFTWKDAFDKGSLFGGSVKLALASLGYEKSCVLFNCAALASQIAAEQNLDNDEGLKIAAKHYQFASGAFLHIKETVLSALSREPTVDISPDTVGTLSLIMLAQAQEVFFLKATRDKMKDAIIAKLANQAADYFGDAFKQCQYKDTLPKEVFPVLAAKHCIMQANAEYHQSILAKQQKKFGEEIARLQHAAELIKTVASRYDEYVNVKDFSDKINRALAAAKKDNDFIYHDRVPDLKDLDPIGKATLVKSTPVNVPISQKFTDLFEKMVPVSVQQSLAAYNQRKADLVNRSIAQMREATTLANGVLASLNLPAAIEDVSGDTVPQSILTKSRSVIEQGGIQTVDQLIKELPELLQRNREILDESLRLLDEEEATDNDLRAKFKERWQRTPSNELYKPLRAEGTNFRTVLDKAVQADGQVKECYQSHRDTIVLLCKPEPELNAAIPSANPAKTMQGSEVVNVLKSLLSNLDEVKKEREGLENDLKSVNFDMTSKFLTALAQDGVINEEALSVTELDRVYGGLTTKVQESLKKQEGLLKNIQVSHQEFSKMKQSNNEANLREEVLKNLATAYDNFVELVANLKEGTKFYNELTEILVRFQNKCSDIVFARKTERDELLKDLQQSIAREPSAPSIPTPAYQSSPAGGHAPTPPTPAPRTMPPTKPQPPARPPPPVLPANRAPSATAPSPVGAGTAAPAPSQTPGSAPPPQAQGPPYPTYPGYPGYCQMPMPMGYNPYAYGQYNMPYPPVYHQSPGQAPYPGPQQPSYPFPQPPQQSYYPQQ
partner: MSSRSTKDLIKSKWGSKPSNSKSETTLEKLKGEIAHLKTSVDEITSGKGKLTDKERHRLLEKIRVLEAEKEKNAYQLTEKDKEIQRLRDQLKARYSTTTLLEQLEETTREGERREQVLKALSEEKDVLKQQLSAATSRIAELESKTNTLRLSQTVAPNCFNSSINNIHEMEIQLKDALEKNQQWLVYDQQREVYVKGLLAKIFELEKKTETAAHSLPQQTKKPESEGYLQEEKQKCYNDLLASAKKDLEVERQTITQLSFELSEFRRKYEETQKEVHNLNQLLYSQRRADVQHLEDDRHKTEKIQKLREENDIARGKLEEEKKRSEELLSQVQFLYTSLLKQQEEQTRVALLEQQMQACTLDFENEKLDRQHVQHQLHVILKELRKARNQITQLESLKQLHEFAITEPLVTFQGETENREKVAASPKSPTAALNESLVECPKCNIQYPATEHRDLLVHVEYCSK
B2: Centrosomal protein of 55 kDa (Homo sapiens), Q53EZ4 (parent)
chain: B1 partner
partner: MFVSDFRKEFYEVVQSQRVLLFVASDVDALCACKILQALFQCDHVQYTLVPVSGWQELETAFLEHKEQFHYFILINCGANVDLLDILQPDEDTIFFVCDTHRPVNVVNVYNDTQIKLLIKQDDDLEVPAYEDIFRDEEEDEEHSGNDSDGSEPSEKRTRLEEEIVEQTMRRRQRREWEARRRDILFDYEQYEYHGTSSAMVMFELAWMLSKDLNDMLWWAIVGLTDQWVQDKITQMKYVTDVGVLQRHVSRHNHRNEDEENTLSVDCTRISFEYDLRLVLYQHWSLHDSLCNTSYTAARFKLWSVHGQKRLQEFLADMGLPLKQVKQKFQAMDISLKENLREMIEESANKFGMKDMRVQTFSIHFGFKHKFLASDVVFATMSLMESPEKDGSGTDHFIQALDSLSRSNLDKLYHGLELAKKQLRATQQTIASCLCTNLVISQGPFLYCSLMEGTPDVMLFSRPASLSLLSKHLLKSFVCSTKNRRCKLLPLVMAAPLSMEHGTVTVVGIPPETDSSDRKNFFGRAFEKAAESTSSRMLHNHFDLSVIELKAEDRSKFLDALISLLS
B3: "N-acyl-aromatic-L-amino acid amidohydrolase (carboxylate-forming)" (Homo sapiens), Q96HD9 (parent)
chain: MCSLPVPREPLRRVAVTGGTHGNEMSGVYLARHWLHAPAELQRASFSAVPVLANPAATSGCRRYVDHDLNRTFTSSFLNSRPTPDDPYEVTRARELNQLLGPKASGQAFDFVLDLHNTTANMGTCLIAKSSHEVFAMHLCRHLQLQYPELSCQVFLYQRSGEESYNLDSVAKNGLGLELGPQPQGVLRADIFSRMRTLVATVLDFIELFNQGTAFPAFEMEAYRPVGVVDFPRTEAGHLAGTVHPQLQDRDFQPLQPGAPIFQMFSGEDLLYEGESTVYPVFINEAAYYEKGVAFVQTEKFTFTVPAMPALTPAPSPAS
partner: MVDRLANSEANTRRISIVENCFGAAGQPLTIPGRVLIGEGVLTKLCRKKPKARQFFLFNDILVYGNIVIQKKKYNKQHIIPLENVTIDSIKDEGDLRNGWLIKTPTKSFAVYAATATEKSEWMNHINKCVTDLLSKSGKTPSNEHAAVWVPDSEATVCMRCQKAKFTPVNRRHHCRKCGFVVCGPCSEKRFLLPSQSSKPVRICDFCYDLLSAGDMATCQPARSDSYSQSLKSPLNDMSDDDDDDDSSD
B4: SHC-transforming protein 1 (Homo sapiens), P29353 (parent)
chain: MDLLPPKPKYNPLRNESLSSLEEGASGSTPPEELPSPSASSLGPILPPLPGDDSPTTLCSFFPRMSNLRLANPAGGRPGSKGEPGRAADDGEGIVGAAMPDSGPLPLLQDMNKLSGGGGRRTRVEGGQLGGEEWTRHGSFVNKPTRGWLHPNDKVMGPGVSYLVRYMGCVEVLQSMRALDFNTRTQVTREAISLVCEAVPGAKGATRRRKPCSRPLSSILGRSNLKFAGMPITLTVSTSSLNLMAADCKQIIANHHMQSISFASGGDPDTAEYVAYVAKDPVNQRACHILECPEGLAQDVISTIGQAFELRFKQYLRNPPKLVTPHDRMAGFDGSAWDEEEEEPPDHQYYNDFPGKEPPLGGVVDMRLREGAAPGAARPTAPNAQTPSHLGATLPVGQPVGGDPEVRKQMPPPPPCPGRELFDDPSYVNVQNLDKARQAVGGAGPPNPAINGSAPRDLFDMKPFEDALRVPPPPQSVSMAEQLRGEPWFHGKLSRREAEALLQLNGDFLVRESTTTPGQYVLTGLQSGQPKHLLLVDPEGVVRTKDHRFESVSHLISYHMDNHLPIISAGSELCLQQPVERKL
partner: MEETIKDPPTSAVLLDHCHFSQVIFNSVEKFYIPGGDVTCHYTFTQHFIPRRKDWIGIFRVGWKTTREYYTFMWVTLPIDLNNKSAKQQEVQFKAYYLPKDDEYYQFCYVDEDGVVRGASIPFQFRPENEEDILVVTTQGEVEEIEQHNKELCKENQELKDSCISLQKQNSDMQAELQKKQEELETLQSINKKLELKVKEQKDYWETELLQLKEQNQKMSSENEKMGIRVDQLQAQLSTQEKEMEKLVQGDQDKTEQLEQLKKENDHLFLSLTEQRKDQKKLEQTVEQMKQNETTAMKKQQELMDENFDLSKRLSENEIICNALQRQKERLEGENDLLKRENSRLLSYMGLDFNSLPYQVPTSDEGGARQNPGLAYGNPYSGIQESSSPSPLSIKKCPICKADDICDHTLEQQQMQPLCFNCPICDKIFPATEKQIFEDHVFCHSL
B5: Protein DDI1 homolog 1 (Homo sapiens), Q8WTU0 (parent)
chain: MLITVYCVRRDLSEVTFSLQVSPDFELRNFKVLCEAESRVPVEEIQIIHMERLLIEDHCSLGSYGLKDGDIVVLLQKDNVGPRAPGRAPNQPRVDFSGIAVPGTSSSRPQHPGQQQQRTPAAQRSQGLASGEKVAGLQGLGSPALIRSMLLSNPHDLSLLKERNPPLAEALLSGSLETFSQVLMEQQREKALREQERLRLYTADPLDREAQAKIEEEIRQQNIEENMNIAIEEAPESFGQVTMLYINCKVNGHPLKAFVDSGAQMTIMSQACAERCNIMRLVDRRWAGVAKGVGTQRIIGRVHLAQIQIEGDFLQCSFSILEDQPMDMLLGLDMLRRHQCSIDLKKNVLVIGTTGTQTYFLPEGELPLCSRMVSGQDESSDKEITHSVMDSGRKEH
partner: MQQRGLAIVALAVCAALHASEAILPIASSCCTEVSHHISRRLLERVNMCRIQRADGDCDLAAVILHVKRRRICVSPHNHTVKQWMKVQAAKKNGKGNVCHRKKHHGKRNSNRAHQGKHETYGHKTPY
B6: Ribose-phosphate pyrophosphokinase 1 (Homo sapiens), P60891 (parent)
chain: MPNIKIFSGSSHQDLSQKIADRLGLELGKVVTKKFSNQETCVEIGESVRGEDVYIVQSGCGEINDNLMELLIMINACKIASASRVTAVIPCFPYARQDKKDKSRAPISAKLVANMLSVAGADHIITMDLHASQIQGFFDIPVDNLYAEPAVLKWIRENISEWRNCTIVSPDAGGAKRVTSIADRLNVDFALIHKERKKANEVDRMVLVGDVKDRVAILVDDMADTCGTICHAADKLLSAGATRVYAILTHGIFSGPAISRINNACFEAVVVTNTIPQEDKMKHCSKIQVIDISMILAEAIRRTHNGESVSYLFSHVPL
partner: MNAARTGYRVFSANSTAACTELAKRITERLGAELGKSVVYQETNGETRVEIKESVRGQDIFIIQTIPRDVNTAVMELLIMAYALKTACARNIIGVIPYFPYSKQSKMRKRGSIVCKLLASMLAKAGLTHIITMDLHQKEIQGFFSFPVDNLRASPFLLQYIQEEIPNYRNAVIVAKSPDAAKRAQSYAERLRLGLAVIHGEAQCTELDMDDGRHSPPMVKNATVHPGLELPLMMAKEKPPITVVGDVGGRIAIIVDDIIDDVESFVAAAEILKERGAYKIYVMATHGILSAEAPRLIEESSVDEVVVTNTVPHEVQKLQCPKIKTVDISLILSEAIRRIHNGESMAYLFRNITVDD
B7: Protein LDOC1 (Homo sapiens), O95751 (parent)
chain: MVDELVLLLHALLMRHRALSIENSQLMEQLRLLVCERASLLRQVRPPSCPVPFPETFNGESSRLPEFIVQTASYMLVNENRFCNDAMKVAFLISLLTGEAEEWVVPYIEMDSPILGDYRAFLDEMKQCFGWDDDEDDDDEEEEDDY
partner: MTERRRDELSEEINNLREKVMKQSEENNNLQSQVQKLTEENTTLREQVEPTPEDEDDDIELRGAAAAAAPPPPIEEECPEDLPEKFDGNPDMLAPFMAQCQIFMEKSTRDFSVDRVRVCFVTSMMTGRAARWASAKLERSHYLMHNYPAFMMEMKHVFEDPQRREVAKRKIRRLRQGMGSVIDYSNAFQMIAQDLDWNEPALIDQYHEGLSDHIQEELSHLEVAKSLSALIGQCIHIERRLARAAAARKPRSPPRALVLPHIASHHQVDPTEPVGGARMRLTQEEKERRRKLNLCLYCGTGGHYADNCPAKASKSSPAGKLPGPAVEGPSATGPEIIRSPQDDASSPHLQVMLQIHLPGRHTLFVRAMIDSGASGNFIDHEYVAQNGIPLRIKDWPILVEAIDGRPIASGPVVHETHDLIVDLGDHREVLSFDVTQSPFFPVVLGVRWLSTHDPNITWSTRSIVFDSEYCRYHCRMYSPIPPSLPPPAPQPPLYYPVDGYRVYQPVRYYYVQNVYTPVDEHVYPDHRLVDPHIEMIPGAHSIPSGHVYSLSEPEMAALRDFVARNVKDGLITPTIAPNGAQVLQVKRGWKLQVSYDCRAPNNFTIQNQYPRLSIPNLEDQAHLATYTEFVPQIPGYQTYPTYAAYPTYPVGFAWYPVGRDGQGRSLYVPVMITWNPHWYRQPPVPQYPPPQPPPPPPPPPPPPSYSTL
B8: Ropporin-1A (Homo sapiens), Q9HAT0 (parent)
chain: MAQTDKPTCIPPELPKMLKEFAKAAIRVQPQDLIQWAADYFEALSRGETPPVRERSERVALCNRAELTPELLKILHSQVAGRLIIRAEELAQMWKVVNLPTDLFNSVMNVGRFTEEIEWLKFLALACSALGVTITKTLKIVCEVLSCDHNGGSPRIPFSTFQFLYTYIAKVDGEISASHVSRMLNYMEQEVIGPDGIITVNDFTQNPRVQLE
partner: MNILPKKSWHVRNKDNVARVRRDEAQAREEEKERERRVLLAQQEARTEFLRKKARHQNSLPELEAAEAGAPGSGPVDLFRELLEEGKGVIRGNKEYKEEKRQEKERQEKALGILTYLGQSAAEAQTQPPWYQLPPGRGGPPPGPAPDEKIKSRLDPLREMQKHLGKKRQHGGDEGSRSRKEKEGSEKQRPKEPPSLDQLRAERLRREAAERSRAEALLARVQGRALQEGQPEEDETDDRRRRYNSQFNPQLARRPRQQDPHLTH

Variants of: B1
Settings: with cep55_human CEP55, Q53EZ4

Row | Variant | effect of a mutation on the interaction
1 | G778A | with no effect
2 | A309T | with no effect
3 | G429S | with no effect
4 | S730L | with no effect

Variants of: B2
Settings: with cdc45_human CDC45, O75419

Row | Variant | effect of a mutation on the interaction
5 | R348K | with no effect
6 | H57Q | with no effect
7 | A244P | with no effect
8 | C236R | with no effect

Variants of: B3
Settings: with pkhf2_human PLEKHF2, Q9H8W4

Row | Variant | effect of a mutation on the interaction
9 | R8Q | disrupting interaction strength

Variants of: B4
Settings: with caco2_human CALCOCO2, Q13137

Row | Variant | effect of a mutation on the interaction
10 | M410V | with no effect
11 | R369Q | with no effect

Variants of: B5
Settings: with ccl28_human CCL28, Q9NRJ3

Row | Variant | effect of a mutation on the interaction
12 | R87C | with no effect
13 | R208G | disrupting interaction strength
14 | S63A | with no effect
15 | G136S | with no effect
16 | N228T | with no effect
17 | D323N | with no effect

Variants of: B6
Settings: with kpra_human PRPSAP1, Q14558

Row | Variant | effect of a mutation on the interaction
18 | D183H | with no effect
19 | E43D | with no effect

Variants of: B6
Settings: with kpra_human PRPSAP1, Q14558
Remark: another data set of the same source

Row | Variant | effect of a mutation on the interaction
20 | D203H | with no effect

Variants of: B7
Settings: with peg10_human PEG10, Q86TG7

Row | Variant | effect of a mutation on the interaction
21 | L12H | with no effect

Variants of: B8
Settings: with leng1_human LENG1, Q96BZ8

Row | Variant | effect of a mutation on the interaction
22 | C62W | with no effect
